Assay results reported in PMC9093745, “Carbohydrate Metabolism in Bacteria: Alternative Specificities in ADP-Glucose Pyrophosphorylases Open Novel Metabolic Scenarios and Biotechnological Tools” (Frontiers in Microbiology, 2022).

Assays:
[1] = substrate: N[C@H]1[C@@H](OP(=O)(O)O)O[C@H](CO)[C@@H](O)[C@@H]1O; assay: purified protein; settings: ATP co-substrate, Mg2+, pH 8.0, 37°C, no activator
[2] = substrate: Nc1ncnc2c1ncn2[C@@H]1O[C@H](COP(=O)(O)OP(=O)(O)OP(=O)(O)O)[C@@H](O)[C@H]1O; assay: purified protein; settings: 1 mM GlcN-1P co-substrate, Mg2+, pH 8.0, 37°C

B1: G. stearothermophilus ADP-Glc PPase GlgC/GlgD (Geobacillus stearothermophilus) (protein)
chain: MKKKCIAMLLAGGQGSRLRSLTTNIAKPAVPFGGKYRIIDFTLSNCTNSGIDTVGVLTQYQPLLLHSYIGIGSAWDLDRRNGGVTVLPPYSVSSGVKWYEGTANAVYQNINYIEQYNPDYVLVLSGDHIYKMDYQHMLDYHIAKQADVTISVIEVPWEEASRFGIMNTNEEMEIVEFAEKPAEPKSNLASMGIYIFNWPLLKQYLQIDNANPHSSHDFGKDVIPMLLREKKRPFAYPFEGYWKDVGTVKSLWEANMDLLDENNELDLFDRSWRIYSVNPNQPPQYISPEAEVSDSLVNEGCVVEGTVERSVLFQGVRIGKGAVVKESVIMPGAAVSEGAYVERAIVTPDSIIPPHSSVCPEDADDVVLVTAEWLKQSNEETARKDEA
In the case of B1, the Km [1] is reported as 400 µM and the Km [2] is reported as 210 µM.
